Experimental data taken from publication PMC7564666 (2020).

B1: GST-LASP1 (full length LIM and SH3 Protein 1, residues 1–261) [human] / argonaute 2 (Ago2), endogenous [human (endogenous in MDA-MB-231 variants 231S and Bone-Un)] (parent complex)
chain 1: MNPNCARCGKIVYPTEKVNCLDKFWHKACFHCETCKMTLNMKNYKGYEKKPYCNAHYPKQSFTMVADTPENLRLKQQSELQSQVRYKEEFEKNKGKGFSVVADTPELQRIKKTQDQISNIKYHEEFEKSRMGPSGGEGMEPERRDSQDGSSYRRPLEQQQPHHIPTSAPVYQQPQQQPVAQSYGGYKEPAAPVSIQRSAPGGGGKRYRAVYDYSAADEDEVSFQDGDTIVNVQQIDDGWMYGTVERTGDTGMLPANYVEAI
chain 2: not shown

Variants of: B1
Assay: GST pull-down, immunoblot; 1 mg of Bone-Un LASP1-KO total lysate; 1.5 nmol of each of the double-mutants; parent: 1

Variant	ratio to parent
chain 1 S146D, chain 1 Y171D	0.9
chain 1 S146A, chain 1 Y171F	1.29
chain 1 S146A, chain 1 Y171D	1.82

Variants of: B1
Assay: GST pull-down with purified proteins (direct binding), immunoblot; 100 ng of purified recombinant Ago2; 1.5 nmol of purified LASP1 double mutants; high exposure blot; parent: 1

Variant	ratio to parent
chain 1 S146D, chain 1 Y171D	0.58
chain 1 S146D, chain 1 Y171F	0.34

Variants of: B1
Assay: GST pull-down with purified proteins (direct binding), immunoblot; 100 ng of purified recombinant Ago2; 1.5 nmol of purified LASP1 double mutants; low exposure blot; parent: 1

Variant	ratio to parent
chain 1 S146A, chain 1 Y171F	1.6
chain 1 S146A, chain 1 Y171D	3.98

Variants of: B1
Assay: GST pull-down, immunoblot; 1 mg of Bone-Un LASP1 KO total lysate; 1.5 nmol of each LASP1 single-mutant protein; parent: 1

Variant	ratio to parent
chain 1 Y171F	0.27
chain 1 Y171D	5
chain 1 S146D	3.23
chain 1 S146A	4.79

Variants of: B1
Assay: GST pull-down with purified proteins (direct binding), immunoblot; 100 ng of purified recombinant Ago2; 1.5 nmol of each purified single-mutant protein; high exposure blot; parent: 1

Variant	ratio to parent
chain 1 Y171F	0.08
chain 1 Y171D	0.61
chain 1 S146D	0.39
